Two molecules from publication PMC10646045, “Multiplexed detection of viral antigen and RNA using nanopore sensing and encoded molecular probes” can be followed below.

In general, Kd refers to the free concentration of one partner at which half of the binding sites on the other are occupied at equilibrium, for simple one-to-one binding.

Data set [1] concerns the target SARS-CoV-2 spike protein S1 region (SARS-CoV-2, UniProt P0DTC2 13-685). In words: SPR. The conditions noted are these: protein: commercial.
The target of data set [2] is SARS-CoV-2 nucleocapsid protein (SARS-CoV-2, UniProt P0DTC9 1-419). In words: SPR. The conditions noted are these: protein: commercial.

B1: SBA (ssDNA)
DNA: CACGCATAACGTCTTGCGGGGCGGCGGGTTGAGAGGATGTCGGGTGGTTATGCGTG
For the molecule B1, binding in data set [1] was characterised by a dissociation constant (Kd) of 9.86 nM.

B2: NBA (ssDNA)
DNA: GCTGGATGTCGCTTACGACAATATTCCTTAGGGGCACCGCTACATTGACACATCCAGC
In turn, B2 returned a Kd in data set [2] of 0.73 nM.
